Tests used:
[1] = molecular target: McdB CC + CTD truncation (Synechococcus elongatus PCC 7942); assay: SEC-MALS; Shodex PROTEIN KW-804; 50 µl at 1.5 mg/ml; 150 mM KCl, 20 mM Tris-HCl pH 8.2; BSA as calibration standard
[2] = molecular target: McdB CC domain truncation (Synechococcus elongatus PCC 7942); assay: as above
[3] = molecular target: McdB IDR + CC truncation (Synechococcus elongatus PCC 7942); assay: as above
[4] = molecular target: McdB with all six basic residues of the IDR substituted to glutamines (Synechococcus elongatus PCC 7942); assay: as above
[5] = molecular target: Se7942 McdB (full-length, wild type) (Synechococcus elongatus PCC 7942); assay: as above
McdB CTD 2Q left = assay: SEC-MALS
[6] = molecular target: McdB with four glutamine substitutions in the CTD; assay: SEC-MALS
[7] = molecular target: McdB with four glutamine substitutions in the CTD; assay: SEC-MALS; remark: listed apart in the source
[8] = molecular target: McdB with all six basic residues of the IDR substituted to glutamines; assay: SEC-MALS

Q: With “McdB CC + CTD truncation (domain or fragment)” as the substance, how does the stoichiometry N [1] read?
A: 6

Q: “McdB CC domain truncation (domain or fragment)” was tested. Which stoichiometry N [2] did it give?
A: 2

Q: “McdB IDR + CC truncation (domain or fragment)” was tested. Which stoichiometry N [3] did it give?
A: 2

Q: How did the stoichiometry N [4] turn out when “McdB with all six basic residues of the IDR substituted to glutamines (natural protein)” was run?
A: 6

Q: Which stoichiometry N [5] does the source give for “Se7942 McdB (full-length, wild type) (natural protein)” here?
A: 6

Q: Which other: multiple (oligomer MW over monomer MW) (McdB CTD 2Q left; parent: 5.5) does the source give for “Se7942 McdB (full-length, wild type) CTD 2Q left: … -> … (E->Q, E->Q at segment positions 1, 2)” here?
A: 4.5 x

Q: What about the other: oligomer MW (SEC-MALS) (McdB CTD 2Q left; parent: 96.4) of the same substance?
A: 77.8 kDa

Q: Which other: multiple (oligomer MW over monomer MW) ([6]; parent: 5.5) does the source give for “Se7942 McdB (full-length, wild type) CTD all: … -> … (E->Q, E->Q, E->Q, D->Q at segment positions 1, 2, 9, 11)” here?
A: 1.8 x

Q: What about the other: oligomer MW (SEC-MALS) ([6]; parent: 96.4) of the same substance?
A: 31.8 kDa

Q: What about the other: multiple (oligomer MW over monomer MW) ([7]; parent: 5.5) of the same substance?
A: 1.8 x

Q: What about the other: oligomer MW (SEC-MALS) ([7]; parent: 96.4) of the same substance?
A: 31.8 kDa

Q: Which results are given for “Se7942 McdB (full-length, wild type) R7Q; K9Q; K10Q; R11Q; R13Q; R18Q”?
A: other: multiple (oligomer MW over monomer MW) ([8]; parent: 5.5): 5.6 x; other: oligomer MW (SEC-MALS) ([8]; parent: 96.4): 96.1 kDa

Reference: PMC10554743
